Data reported in US20250388664A1 (BIOARCTIC, published 2025).
Where two headings read alike, the source gives them in different places. One block for each binder: values may come before it.

Assays:
[1] = target: T1, AβpE3-42 protofibrils (UniProt P05067 674-713, pyroglutamate at position 3 (N-terminal residue)); assay: SPR, protofibrils immobilised, antibody injected, 1:1 fit, apparent
T1 construct: range 3-42 (Aβ numbering); Soluble aggregates made from AβpE3-42 peptide, purified in the void peak of SEC; also called AβpE3-42 PF
T1 sequence (P05067 674-713): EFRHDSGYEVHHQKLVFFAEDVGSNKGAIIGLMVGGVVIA
Procedure: (§1) Single cycle kinetics was also used to measure binding of the antibodies to AβpE3-42 protofibrils. […] Regeneration of the surface between cycles was done by injecting 30 μl 10 mM glycine-HCl pH 1.7. The binding data was fitted to a 1:1 interaction model.
(§2) In all SPR experiments, 1×HBS-EP+ (Cytiva, cat. no. BR100669) was used to dilute antibodies and target antigens. Experiments were performed at 25° C.

[2] = target: T1, AβpE3-42 protofibrils; assay: SPR, protofibrils immobilised, antibody injected, 1:1 fit, apparent; apparent KD on AβpE3-42 protofibrils
Procedure: as §1, §2

[3] = target: T2, AβpE3-40 monomer (UniProt P05067 674-711, pyroglutamate at position 3 (N-terminal residue)); assay: SPR, antibody immobilised, monomer injected, 1:1 fit
T2 construct: range 3-40 (Aβ numbering); Synthetic peptide (Bachem/Anaspec), verified monomeric by SEC; also called monomeric AβpE3-40
T2 sequence (P05067 674-711): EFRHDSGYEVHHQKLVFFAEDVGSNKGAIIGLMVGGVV
Procedure: Single cycle kinetics with the antibodies immobilized on a CM5 chip was used to measure the binding of the antibodies to the AβpE3-40 monomer. For the measurements, 5 μg/ml of analyte antibody was immobilized on the chip. […] Regeneration of the surface between cycles was done by injecting 30 μl 3 M MgCl₂. The binding data was fitted to a 1:1 interaction model.
as §2

[4] = target: T2, AβpE3-40 monomer; assay: inhibition ELISA, antigen titrated in solution, AβpE3-40 coat
Procedure: (§3) The humanized antibodies were incubated at a fixed concentration (0.1 μg/ml) with titrating concentrations of the different Aβ antigens. After incubation for 45 min at 900 rpm to reach equilibrium, the antibody-Aβ samples were added to a blocked and washed ELISA plate with an AβpE3-40 coat (0.5 μM). The samples were incubated on the plate for 25 min without shaking followed by washing, incubation with detection antibody, another washing step and finally incubation with alkaline phosphatase substrate.

[5] = target: T3, Aβ1-42 protofibrils (UniProt P05067 672-713); assay: as above
T3 construct: range 1-42 (Aβ numbering); Soluble aggregates made from Aβ1-42 monomer
T3 sequence (P05067 672-713): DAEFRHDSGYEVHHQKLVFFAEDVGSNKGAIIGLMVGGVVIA
Procedure: as §3

[6] = target: T4, Aβ1-40 monomer (UniProt P05067 672-711); assay: as above
T4 construct: range 1-40 (Aβ numbering)
T4 sequence (P05067 672-711): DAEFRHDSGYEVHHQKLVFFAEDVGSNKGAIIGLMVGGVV
Procedure: as §3

[7] = target: T1, AβpE3-42 protofibrils; assay: as above
Procedure: as §3

[8] = target: T5, Aβ3-28 monomer (UniProt P05067 674-699); assay: as above
T5 construct: range 3-28 (Aβ numbering)
T5 sequence (P05067 674-699): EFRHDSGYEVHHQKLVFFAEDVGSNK
Procedure: as §3, with “(0.5” for “(0.1”

[9] = target: T6, Aβ5-28 monomer (UniProt P05067 676-699); assay: as above
T6 construct: range 5-28 (Aβ numbering)
T6 sequence (P05067 676-699): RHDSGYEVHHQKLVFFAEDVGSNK
Procedure: as §3, with “(0.5” for “(0.1”

[10] = target: T7, Aβ1-28 monomer (UniProt P05067 672-699); assay: as above
T7 construct: range 1-28 (Aβ numbering)
T7 sequence (P05067 672-699): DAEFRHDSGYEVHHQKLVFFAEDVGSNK
Procedure: as §3, with “(0.5” for “(0.1”

[11] = target: T8, Aβ2-28 monomer (UniProt P05067 673-699); assay: as above
T8 construct: range 2-28 (Aβ numbering)
T8 sequence (P05067 673-699): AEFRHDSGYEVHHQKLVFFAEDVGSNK
Procedure: as §3, with “(0.5” for “(0.1”

[12] = target: T9, AβpE11-28 monomer (UniProt P05067 682-699, pyroglutamate at position 11 (N-terminal residue)); assay: as above
T9 construct: range 11-28 (Aβ numbering)
T9 peptide (looked up): EVHHQKLVFFAEDVGSNK
Procedure: as §3, with “(0.5” for “(0.1”

[13] = target: T10, AβpE3-28 monomer (UniProt P05067 674-699, pyroglutamate at position 3 (N-terminal residue)); assay: as above
T10 construct: range 3-28 (Aβ numbering)
Procedure: as §3, with “(0.5” for “(0.1”

[14] = target: T11, Aβ4-28 monomer (UniProt P05067 675-699); assay: as above
T11 construct: range 4-28 (Aβ numbering)
T11 sequence (P05067 675-699): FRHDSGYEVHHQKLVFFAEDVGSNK
Procedure: as §3, with “(0.5” for “(0.1”

[15] = target: T1, AβpE3-42 protofibrils; assay: SPR, protofibrils immobilised, antibody injected, 1:1 fit, apparent; binding to AβpE3-42 protofibrils; KD in pM
Procedure: as §1, §2
Affinity evaluation and KD determination by surface plasmon resonance: Binding interactions between antigens and antibodies were evaluated by SPR using a Biacore 8K instrument (Cytiva) according to standard procedures.

[16] = target: T2, AβpE3-40 monomer; assay: inhibition ELISA, antigen titrated in solution, AβpE3-40 coat; remark: listed apart in the source
[17] = target: T3, Aβ1-42 protofibrils; assay: as above; remark: listed apart in the source
[18] = target: T4, Aβ1-40 monomer; assay: as above; remark: listed apart in the source
[19] = target: T1, AβpE3-42 protofibrils; assay: as above; remark: listed apart in the source
[20] = target: T5, Aβ3-28 monomer; assay: as above; remark: listed apart in the source
Procedure: as §3, with “(0.5” for “(0.1”

[21] = target: T7, Aβ1-28 monomer; assay: as above; remark: listed apart in the source
Procedure: as §3, with “(0.5” for “(0.1”

[22] = target: T10, AβpE3-28 monomer; assay: as above; remark: listed apart in the source
Procedure: as §3, with “(0.5” for “(0.1”

[23] = target: T1, AβpE3-42 protofibrils; assay: SPR, protofibrils immobilised, antibody injected, 1:1 fit, apparent; remark: listed apart in the source
[24] = target: T2, AβpE3-40 monomer; assay: SPR, antibody immobilised, monomer injected, 1:1 fit; remark: listed apart in the source

koff [1]: 2.05e-05 s⁻¹
kon [1]: 44300 M⁻¹ s⁻¹
Kd [2]: 0.464 nM
Kd [3]: 2.7 nM
koff [3]: 0.000139 s⁻¹
kon [3]: 53700 M⁻¹ s⁻¹
IC50 [4]: 2.1 nM
IC50 [5]: > 500 nM
IC50 [6]: > 12500 nM
IC50 [7]: 4.9 nM
IC50 [8]: 1790 nM
IC50 [9]: > 12500 nM
IC50 [10]: > 12500 nM
IC50 [11]: > 12500 nM
IC50 [12]: > 12500 nM
IC50 [13]: 3.5 nM
IC50 [14]: > 12500 nM
B1: H9L8 (antibody, human IgG1, kappa, V domains shown)
VH: QVQLVQSGPEVKKPGSSVKVSCKASGYSFTGFTMNWVRQTPGKGLEWIGLINPYNGVTTYNQKFKGRVTITADESTRTAYMELLSLTYEDTAVYYCTREGNWEGVYWGQGTPVTVSA
VL: EVVLTQSPLSISVTLGQSASISCRSSQSLLDSNGKTYLHWFILRPGQSPRRLIYLVSILDSGIPDRFSGSGSGTDFTLKISRVEAEDVGVYYCVQGTHFPFTFGGGTKLEIKR
notes: Humanized IgG1/kappa, expressed in CHO cells; also called humanized Pyr12.2 variant H9L8; VH9/VL8

Kd [15]: 0.477 nM
IC50 [16]: 1.69 nM
IC50 [17]: > 132 nM
IC50 [18]: > 500 nM
IC50 [19]: 3.58 nM
IC50 [20]: 2820 nM
IC50 [21]: 10200 nM
IC50 [22]: 3 nM
koff [23]: 2.92e-05 s⁻¹
kon [23]: 61200 M⁻¹ s⁻¹
Kd [24]: 4.14 nM
koff [24]: 0.000233 s⁻¹
kon [24]: 59000 M⁻¹ s⁻¹
B2: H2L7-K12V/R71A (antibody, human IgG1, kappa)
heavy: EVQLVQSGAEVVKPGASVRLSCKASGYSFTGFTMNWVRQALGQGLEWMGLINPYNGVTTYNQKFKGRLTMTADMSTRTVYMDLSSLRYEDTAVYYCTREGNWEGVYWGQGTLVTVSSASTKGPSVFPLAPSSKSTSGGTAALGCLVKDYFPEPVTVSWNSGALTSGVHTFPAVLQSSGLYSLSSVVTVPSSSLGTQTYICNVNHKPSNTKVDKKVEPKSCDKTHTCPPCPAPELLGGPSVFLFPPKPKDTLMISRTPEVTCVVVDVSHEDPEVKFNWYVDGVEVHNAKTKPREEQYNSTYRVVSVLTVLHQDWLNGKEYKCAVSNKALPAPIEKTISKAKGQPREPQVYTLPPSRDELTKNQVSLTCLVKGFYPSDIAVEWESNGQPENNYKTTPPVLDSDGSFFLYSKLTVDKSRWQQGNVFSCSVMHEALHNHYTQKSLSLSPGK
light: EIVLTQSPLSLSVTLGQSASISCRSSQSLLDSNGKTYLHWFILRPGQSPRRLIYLVSILDSGVPDRFSGSGSGTDFTLKISRVEAEDVGVYYCVQGTHFPFTFGSGTKLEIKRTVAAPSVFIFPPSDEQLKSGTASVVCLLNNFYPREAKVQWKVDNALQSGNSQESVTEQDSKDSTYSLSSTLTLSKADYEKHKVYACEVTHQGLSSPVTKSFNRGEC
notes: VH variant of H2L7; VL and constant domains identical to H2L7
